The source of these data is the domain aggregation screens of Martell et al. (2025).

A value given as a limit tells only on which side of the number the result lay.
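Note: 20 min heating vs room temperature control held 20 min.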

A short description of this series: soluble fraction after stress (log2 fold change); higher = more stays soluble; pooled small domains, quantitative proteomics. Conditions: stress: 75 degC.
In the case of “HMEGNLVEIFEDAFGRTMSTMDIEYINQFKRTGYDDEMIVSALREAVKSNALSFRYIERVLENWAHS”, the “soluble fraction (log2)” value was -0.881. Regarding “HMEGTEVTTEPPGAQIEFDGKQFGPTPTRVPGLAAGKQFRITLAGYQEAKPKLKNNPKEGEPLSFTLTAI”, the “soluble fraction (log2)” value stood at 0.338. “HMEGTVQQDKFDAYKAKFEDAISNDLNTSMAITIIYDLLKDDMNDKTKLALINDFDKVLSLNLTTA”: the “soluble fraction (log2)” value was -0.219.

As to “HMEGVTVPDVTRISLDEAEELLTSYGLRFEVADRRANSAFPGNYVIDQAPSAEVIVKPNRKIYLTVNAA”, the “soluble fraction (log2)” value was -0.238. With “HMEHDTVLSKVFRRLREAHVPLSLDDIYQGLRKTVNNNSEIREKIVTLQERGLVAEILGPKGGKKYVAKPT”, the “soluble fraction (log2)” value is -0.693. As to “HMEHIEVDTSHIAVGSKVKHKAFGLGEITDKGNTYVFVKFDGQAIPKKFQFPGAFTQGFLTK”, the “soluble fraction (log2)” value came to 0.236.

Regarding “HMEHPNNTELTQKLELGTELMQYGDYNYALKVFNNVIDSDPEWSEAWNKRATVYFLMSQFTDSLSDIDRV”, the “soluble fraction (log2)” value amounted to 0.331. Regarding “HMEIDMQEGIKTIILMMKEHNITPSEAMKIYKSANGDIHYISKIYNHFKNKGADNFVALMIKMVKPGEFIE”, the “soluble fraction (log2)” value is -2. Turning to “HMEIEETKKNSRTKIPENFDYKLINGLSNEIRAKLELIRPIDLLQASRIDGMTPAALTLVHLWIKKYSG”, the “soluble fraction (log2)” value is -1.52. Take “HMEIEIPEELQNKFAEIPELKTAFESLTPGRQRAYVLYFSQPKQSKTREARIEKYIPHILDGKGMN”: the “soluble fraction (log2)” value turned out to be 0.461. Turning to “HMEIESAHAQVLGVREIAASGATQHWIAFRFSDGHQRELLATPSQADVIFRGQQGVVHFAGDRLTGWIPE”, the “soluble fraction (log2)” value amounted to 0.104. Take “HMEIEYFDDEELDAYKGRKSDSYTDEEAAQFAEVLYTMRPSEVKDWTASLTLRGISMPDQIKDEAIMLME”: the “soluble fraction (log2)” value is -0.148. With “HMEIGELITLYRKQAGLTIDELSEKANVPKGTLNKIIGGITKAPTLETMRSIAYALGKKLADFDN”, the “soluble fraction (log2)” value was -0.503. “HMEIHQVEFGGKVISFVLERKPVKNVNLHIKPDMTVMVSANEKVPLDFILGFVKQKAAWILKNIQFFEDV”: the “soluble fraction (log2)” value is -3.57. Consider “HMEIKDQADAYGKMEPASAAAILSEMTNDLTLVAKILDSMQTSKSALILQNMKPTTAAQVTTKMTAMK”, for which the “soluble fraction (log2)” value was 0.0474.

Turning to “HMEILTRQLTHYLHLLPPAQQEVVRGVYLQDQTLQEIADRVQIPLGTVKSRLRLGLSKLREQIEQEHE”, the “soluble fraction (log2)” value is -1.36. Regarding “HMEIMELPEYVVRSGSGLDAFREKWDLWDQGLMYDLKDKRAVFPIFIDGVMIDAVGRALAGAEPKWLRYTG”, the “soluble fraction (log2)” value is -0.176. The value for “HMEINEDEIYEKIMIEIEQDNKVKSTWAKALSQSDGNKDKAESLYISMRFEELKYHQSYQKEELNLKDNQQ” was 0.0614; that for “HMEIPRYRLIGADGGRMVDLGEGQGAIPPVDVKRGMIDMPGLGKGYYTADGKSAVITNADGSKTRVL” was -0.25. With “HMEIRNLMPILSHFLNENDIKLSRESVNLVLDRASGNRENLNNELKKIHDYSFSNKIIDFETIKKLTNLG”, the “soluble fraction (log2)” value is -0.0896. Take “HMEISLAETLRSSLHMILGWYQNTGDKKLLELIRLHLQAYVNTGNSLNPEMEEIRAALETLGEGKEAFRP”: the “soluble fraction (log2)” value is -2.35. Regarding “HMEISNWLEEIGLSRYTETLSEFPLEDLVEFTDDDFKELGVLTPHRKKLLAAIATLNNDASSN”, the “soluble fraction (log2)” value was -0.245.

In the case of “HMEISTEVPLRGGTISEEALEALNRLPGVTASNIDGKSISVDVADNAELRVSDINQVLAVHSPDTRV”, the “soluble fraction (log2)” value is -0.0403. Turning to “HMEITRDTVIQWLEAERRSQTWLSKQLGVSVQAVSNWLREKNPQTISASAQITIRALMEEDAAK”, the “soluble fraction (log2)” value is -1.11.

Regarding “HMEIVQVIAQNIQDLLDKHKISVSELSGYLGISRQTLTNYLKTTSTIDSVQLVKIADFFNIPAEYLLKDH”, the “soluble fraction (log2)” value is -1.5.

For the sequence “HMEIVSTEEKIKRAAEQVFLLRGLEGARMQEIADVAGINKAMLHYYFRNKETLFDVILSEKL”, the “soluble fraction (log2)” value is -2.11. On to “HMEIYEEDRTKVVNDLMDQILNRQITMDAAATKFINIRNSLGTTITKEDEQNLEMLRGLIFDKT”, for which the “soluble fraction (log2)” value amounted to 0.2. “HMEIYIDGNKYVGELRNGKPNGRGTITYTGDGSKYVGEWKNGKRYGRGKMAYTNGTTKEGVWKDDEFLYAT”: the “soluble fraction (log2)” value amounted to 0.181. As to “HMEKAKVPSVIGMTEANAKRTIRDAGFKVGRVTRVESEAYDKGKVIEQQYEAGSELEKKKPISIVVSKGKK”, the “soluble fraction (log2)” value was -0.108. As to “HMEKALEVKYQKMVELLGDQSTFYVDEVKKIFPEMKKSSLYWNMSKLVEGGYLRRIRNGVYAFNE”, the “soluble fraction (log2)” value was -0.401. With “HMEKEKIKEALIGYFEAEPEEKFTVQELADKLKMNKAGQFNFVVQAVAQLEHDKVITLDDEGNFSLVRHE”, the “soluble fraction (log2)” value turned out to be 0.176.

Consider “HMEKERYDTGIGELNRVLGGGLVKGSLILISGDPGIGKSTLLLQTANNISKKYGKVLYVSGEESEEQIKIR”, for which the “soluble fraction (log2)” value was -0.879. For the sequence “HMEKGWYKLGQDSYYVDDDGKIHKGWLELDGKKYYFDQEGKMVTGTVNIDGKDYTFNEKGELYVS”, the “soluble fraction (log2)” value was not below 1.04. The value for “HMEKIELKTVIPENLKKKRLDFALSELFPEHSRSRIQSWIKEGSVMVNSKNYRQRDLVDAGDVVEINTEQK” was 0.00949; that for “HMEKIIGQIQINQRGNGYVIVPNVKDDIFVKRENLNSARQGDRVAVQLLSRPNQKPEGLVQEVLERGQ” was 0.637; that for “HMEKILSYKALMNDAGKRIDQFLANNEKDISRTRIKSLILEGSLKLDNNIINDPSYKIKENDVFTLFIPEA” was -0.482. As for “HMEKIRIQKYLSERGVMSRRAADSALAEGRIAVNGVTARPGDKIDPSSDTLTIDGRIVTTGTAP”, the figure is -0.0992. For “HMEKKEWVIYITGAVKKPGVYRIPEGARVYQALEAAGGFTPEADRDAVNLAAMLQDGAHIKFPAVGEEV”, the “soluble fraction (log2)” value is -0.148. Consider “HMEKLNYSISNEEQGQRIDKYLSLMIEGKSRSFIQGLIDDKKVMANGKVIKSNYKLKNNDEITVEMPDPI”, for which the “soluble fraction (log2)” value was -0.0366. As for “HMEKNILPDTSPEKQYEFATSFLKVGDYSTAERAFREFVINNSEHKLAGNAQYWYAETFRIRQ”, the “soluble fraction (log2)” value amounted to 0.261.

Take “HMEKSQIHLIHTRYVNPEQLVPILSMVIPAENIYVKSDSNLIIINGSSEMLREVESIVSKLDVPS”: the “soluble fraction (log2)” value is -0.255. For “HMEKSSALRAKEAFMALYHDGKFKPGTKIPSESNMAELLGVSRETWRKALALLRGDGVLYSKHGSGTYLLE”, the “soluble fraction (log2)” value came to 0.254. As for “HMEKTKLPNLVDFTYRQAEALLQTHGLKVGKVERVPDVGQTVIKAKYKGKVISWGTELNKGEKIDLVIGKG”, the figure is -0.542; as for “HMELADLPSAQIREILAYVYRAPLEKRRDPSIHWLLIAAHKLTLPLLDRLDPADARALGERYGADYP”, -0.00148; as for “HMELARLRPELDGNDIMRILGVPPGPVVGRAYTYLLELRINQGELGRERVTQLLLDWAAAEGISA”, -2.76.

In the case of “HMELDMTFGEKIQKLRKESGLSQEELSYQLGVSRQAISKWERDSGYPETEKIVRMSKIFDVTLDYLLNE”, the “soluble fraction (log2)” value is -0.582. “HMELEDTYTKNLDASLARLDEYQASKGLTDEQVDEVINSLIADAENIIMGVFTPELIDSKLKAMNYDQDV”: the “soluble fraction (log2)” value is 0.119. As for “HMELEFLTEKQKEALILAVNRGYYDVDSEVTLKRLADELGIARSTYGEHLKRAESEALKMVVSDLLRD”, the figure is -0.556; as for “HMELEIPGELIEAVRRLRDERQRMRLAGELAARQIQMHPERYTEASIDPVQTWDELRARILALA”, -0.485; as for “HMELLSGTVEKVLTSGVLVKLPGGAIGFIPNSEMGTPRGTNHGKMFPAGTPLQVMVVEVNQDRGRITLSR”, -1.69. As for “HMELLTNPLTGREVEVLTLMALGQTNHEIARQLYLATGTVKAHTSSIYRKLDVANRTEAVARARQLGIL”, the figure is -2.32; as for “HMELLTYREMDVLNLLDQRLTNKEIAHALGISTETVRQHTVNLFRKLNVDNRRQAIVVARSLGYIGTPT”, -2.97.

Turning to “HMELNESVLKALYEKFREMSGSKGFITEDEVIIQLEKENPDITPDQQAEIFKYLYDTPLQIY”, the “soluble fraction (log2)” value was -0.268.

Consider “HMELNFEGFYRFVRDELNVDLNAYKEKQLKRRIATVMKSSGALTLEDYSRLIANDEVIRNKFLDYITI”, for which the “soluble fraction (log2)” value is -3.37.

For “HMELPMGTQLPPERELAQQMQVSRAVVNGGLAELAQQGFLEVRPRQGTFVADYRRKGNLSTLIAIMEY”, the “soluble fraction (log2)” value stood at 0.257. For “HMELPPLQPGQPIDGRVEQQIRAGYYVVSVRGRGYEFQLPESARPGDLLRMVYLNDHPRLTFALLRIDNAN”, the “soluble fraction (log2)” value is -1.5. The value for “HMELPVAVPHTELSPEALRGVVESFVLREGTDYGERDVPFEAKVAQVIRQLERGEARIMFDPVTQSVQIVT” was 0.162. Take “HMELRSPMPGLIIEIPVSKGDIIKKDQSLIILEAMKMENVLTSPINGKIADIKVNVQDTVEKNNLLITFEN”: the “soluble fraction (log2)” value was -0.0769. Turning to “HMELSESLENYLVVIYEAHLRNEIARIKDMTASLSVKHTSAIDAIKKLEDLGIVNYEKRGFVKLTQSGIEK”, the “soluble fraction (log2)” value was 0.00204. Turning to “HMELSPAELGERLKVARETANVTQDAGAKAAGIARTTLVAIEKGQRSARIDELQTLSRRYGVSVNSLLRR”, the “soluble fraction (log2)” value was -0.154. Turning to “HMELSSRQAMIVDIVRKYEPITSEQIADKLNLTRSALRPDLAVLTMIGILEARPRVGYFFTGK”, the “soluble fraction (log2)” value is -1.91. As for “HMELSTQERIQILLEILNQREIISFSQTLRKKEGKKGVVVTFLASLELAKDGYVTLVQNKSDQIYLRSN”, the “soluble fraction (log2)” value was -0.803.

Consider “HMELTDSLTENAKKLYSVLTTEPRHIDDLSEEAKLSSADTLAALTELELYSLVALSEGKHYYK”, for which the “soluble fraction (log2)” value is -0.349. As for “HMELTKAELEVMQILWKLKKAFVGDILDRMVEPKPAYNTVSTVVRLLEKKGVVGHESFGKSHRYYPL”, the “soluble fraction (log2)” value was -3.66. “HMELTVPDFTNMSLEDAINLAEKRDVRLEVTDSVFVKRLGRGFIYSQNPVAGSKVKKGRRILITINAIN”: the “soluble fraction (log2)” value was -3.63. Take “HMEMDPKELGRQVLAKRKEKGWSQEQLGKMAEISRNYVSQIERGEADSISIKIINRLAIALGVSPSDLGE”: the “soluble fraction (log2)” value was -0.292. The value for “HMEMKHKNSQIFQAIKLKHMGFTPTQISEELRVSRTTINHWLTKAQLKDVKWEDIRENSADELVKLLFG” was -1.33. On to “HMEMNPLDIQNKAAELAQQWLQLPVGERQKQMAAVRTSNPNLHAMAKQKMEEMRSQAESQGRQSLSQP”, for which the “soluble fraction (log2)” value came out at 0.324. On to “HMEMTDKEEELMRIFWNHGPMFVREIVELYPEPRPHFNTLSTFVRNLEQKGFVSHEAVGGSFRYYAV”, for which the “soluble fraction (log2)” value was -1.45.
